Molecular target: erp44_mouse Erp44 (UniProt Q9D1Q6)
Sequence (Q9D1Q6 whole entry): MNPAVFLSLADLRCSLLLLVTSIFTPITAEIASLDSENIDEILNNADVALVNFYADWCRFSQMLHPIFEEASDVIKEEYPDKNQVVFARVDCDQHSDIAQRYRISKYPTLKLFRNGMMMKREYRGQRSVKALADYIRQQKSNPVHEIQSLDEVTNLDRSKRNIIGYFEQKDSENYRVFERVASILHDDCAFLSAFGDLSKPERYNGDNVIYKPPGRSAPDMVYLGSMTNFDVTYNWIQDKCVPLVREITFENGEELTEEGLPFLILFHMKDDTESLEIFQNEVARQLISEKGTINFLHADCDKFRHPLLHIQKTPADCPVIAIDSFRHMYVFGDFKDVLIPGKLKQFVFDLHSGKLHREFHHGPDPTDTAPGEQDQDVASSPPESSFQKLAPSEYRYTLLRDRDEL

Chain of Inositol 1,4,5-trisphosphate-gated calcium channel ITPR1 (Mus musculus), P11881 C2496S (P11881 whole entry C2496S): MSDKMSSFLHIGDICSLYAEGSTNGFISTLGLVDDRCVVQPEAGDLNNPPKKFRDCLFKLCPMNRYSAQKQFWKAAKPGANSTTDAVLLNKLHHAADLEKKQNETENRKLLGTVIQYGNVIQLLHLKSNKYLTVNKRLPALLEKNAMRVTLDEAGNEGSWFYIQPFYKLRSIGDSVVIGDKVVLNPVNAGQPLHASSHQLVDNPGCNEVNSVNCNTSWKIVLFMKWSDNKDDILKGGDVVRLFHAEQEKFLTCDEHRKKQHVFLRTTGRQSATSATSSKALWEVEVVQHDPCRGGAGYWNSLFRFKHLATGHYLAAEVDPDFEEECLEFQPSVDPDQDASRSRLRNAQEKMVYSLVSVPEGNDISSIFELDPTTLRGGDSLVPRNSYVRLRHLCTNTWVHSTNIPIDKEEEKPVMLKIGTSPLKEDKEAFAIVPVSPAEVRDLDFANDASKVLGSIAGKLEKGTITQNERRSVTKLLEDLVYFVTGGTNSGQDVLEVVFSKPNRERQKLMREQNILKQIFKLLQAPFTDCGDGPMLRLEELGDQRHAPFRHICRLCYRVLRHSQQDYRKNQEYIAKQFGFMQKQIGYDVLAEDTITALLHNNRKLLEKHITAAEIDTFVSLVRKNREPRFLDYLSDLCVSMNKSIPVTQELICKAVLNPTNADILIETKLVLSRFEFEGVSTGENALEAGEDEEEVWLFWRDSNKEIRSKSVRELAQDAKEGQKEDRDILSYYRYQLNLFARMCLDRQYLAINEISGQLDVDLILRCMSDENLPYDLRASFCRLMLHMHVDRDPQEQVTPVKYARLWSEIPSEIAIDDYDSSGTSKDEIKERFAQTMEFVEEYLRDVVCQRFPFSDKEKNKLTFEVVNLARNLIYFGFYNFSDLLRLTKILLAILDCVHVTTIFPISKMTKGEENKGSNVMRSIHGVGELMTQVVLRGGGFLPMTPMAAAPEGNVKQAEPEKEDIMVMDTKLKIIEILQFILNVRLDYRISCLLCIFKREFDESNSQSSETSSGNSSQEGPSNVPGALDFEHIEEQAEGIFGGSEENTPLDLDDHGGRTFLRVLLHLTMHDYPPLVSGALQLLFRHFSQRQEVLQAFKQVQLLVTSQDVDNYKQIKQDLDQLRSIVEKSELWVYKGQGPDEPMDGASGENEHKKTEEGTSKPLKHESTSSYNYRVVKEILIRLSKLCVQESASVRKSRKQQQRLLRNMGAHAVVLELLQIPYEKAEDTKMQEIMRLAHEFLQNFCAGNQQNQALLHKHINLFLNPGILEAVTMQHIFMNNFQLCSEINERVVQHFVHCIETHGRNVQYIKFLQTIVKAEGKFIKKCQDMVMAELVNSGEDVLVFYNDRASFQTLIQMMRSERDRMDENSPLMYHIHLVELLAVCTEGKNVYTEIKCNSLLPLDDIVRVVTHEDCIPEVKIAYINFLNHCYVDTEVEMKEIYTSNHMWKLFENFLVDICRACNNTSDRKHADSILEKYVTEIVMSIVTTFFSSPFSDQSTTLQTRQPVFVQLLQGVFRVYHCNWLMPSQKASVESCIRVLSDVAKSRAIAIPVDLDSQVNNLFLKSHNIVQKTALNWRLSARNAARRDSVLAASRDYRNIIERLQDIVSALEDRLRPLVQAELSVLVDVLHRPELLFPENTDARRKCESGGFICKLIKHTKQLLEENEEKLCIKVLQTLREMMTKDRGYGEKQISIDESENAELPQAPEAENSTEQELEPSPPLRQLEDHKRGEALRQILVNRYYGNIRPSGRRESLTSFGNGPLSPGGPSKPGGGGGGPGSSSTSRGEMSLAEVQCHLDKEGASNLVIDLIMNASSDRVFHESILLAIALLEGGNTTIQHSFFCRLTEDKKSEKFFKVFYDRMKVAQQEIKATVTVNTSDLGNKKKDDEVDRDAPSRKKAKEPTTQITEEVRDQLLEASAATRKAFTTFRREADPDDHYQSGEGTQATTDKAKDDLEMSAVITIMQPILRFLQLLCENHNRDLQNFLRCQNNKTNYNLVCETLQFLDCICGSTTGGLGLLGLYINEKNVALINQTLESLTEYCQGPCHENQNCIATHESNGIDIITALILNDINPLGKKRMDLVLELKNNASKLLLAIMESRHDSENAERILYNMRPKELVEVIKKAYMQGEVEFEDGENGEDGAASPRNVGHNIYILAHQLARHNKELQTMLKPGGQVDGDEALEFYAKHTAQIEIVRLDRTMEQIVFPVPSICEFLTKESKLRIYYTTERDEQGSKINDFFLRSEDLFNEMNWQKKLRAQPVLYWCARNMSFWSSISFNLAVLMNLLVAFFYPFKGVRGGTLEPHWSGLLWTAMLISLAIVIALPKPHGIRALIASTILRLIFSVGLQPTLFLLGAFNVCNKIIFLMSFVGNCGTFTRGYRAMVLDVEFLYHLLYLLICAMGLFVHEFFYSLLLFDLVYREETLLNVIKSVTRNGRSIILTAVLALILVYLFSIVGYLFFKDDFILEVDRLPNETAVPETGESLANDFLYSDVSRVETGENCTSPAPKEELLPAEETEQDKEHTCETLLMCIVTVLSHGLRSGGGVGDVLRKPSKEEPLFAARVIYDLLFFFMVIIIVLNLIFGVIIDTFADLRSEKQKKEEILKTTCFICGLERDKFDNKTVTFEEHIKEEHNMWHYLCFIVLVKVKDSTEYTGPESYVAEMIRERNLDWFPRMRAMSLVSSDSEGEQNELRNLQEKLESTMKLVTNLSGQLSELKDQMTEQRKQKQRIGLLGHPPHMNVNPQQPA

Row | effect of a mutation on the interaction | Substance
1 | decreasing interaction | Inositol 1,4,5-trisphosphate-gated calcium channel ITPR1 (Mus musculus), P11881 C2496S
2 | decreasing interaction | Inositol 1,4,5-trisphosphate-gated calcium channel ITPR1 (Mus musculus), P11881 C2504S

From IntAct's records for PubMed 15652484
